# Numbering of substitutions follows the chain as printed.
# B1: E11 (designed binder)
# 10Fn3 domain: MGVSDVPRDLEVVAATPTSLLISWTPANKSYQYYRITYGETGGNSPVQEFTVPYDGTTATISGLKPGVDYTITVYAVTDHKPHADGPHTYHEYPISINYRTEIDKPSQ
# B2: E16 (designed binder)
# 10Fn3 domain: B1 10Fn3 domain with T25Q, P26V, A27P, N28R, K29P, S30M, G56L, T57V, Y93S
# B3: E17 (designed binder)
# 10Fn3 domain: MGVSDVPRDLEVVAATPTSLLISWQVPRPMYQYYRITYGETGGNSPVQEFTVPGMVHTATISGLKPGVDYTITVYAVTDHKPHADGPHTYHESPISINYRTEIDKPSQ
# B4: E13 (designed binder)
# 10Fn3 domain: MGVSDVPRDLEVVAATPTSLLISWQVPRPMYQYYRITYGETGGNSPVQEFTVPGQVYTATISGLKPGVDYTITVYAVTDSYNPATHEYKYHQTPISINYRTEIDKPSQ
# B5: E12 (designed binder)
# 10Fn3 domain: B4 10Fn3 domain with G54H, Q55D
# B6: E15 (designed binder)
# 10Fn3 domain: B4 10Fn3 domain with G54H, Q55D, V56L, Y57R
# B7: E14 (designed binder)
# 10Fn3 domain: B4 10Fn3 domain with G54Y, Q55D, Y57T
# B8: E10 (designed binder)
# 10Fn3 domain: MGVSDVPRDLEVVAATPTSLLISWYPGSRTYQYYRITYGETGGNSPVQEFTVPGGVRTATISGLKPGVDYTITVYAVTDYYHPATYEHEYHAHPISINYRTEIDKPSQ
# B9: E20 (designed binder)
# 10Fn3 domain: MGVSDVPRDLEVVAATPTSLLISWMTSPSVYQYYRITYGETGGNSPVQEFTVPGPVQTATISGLKPGVDYTITVYAVTDYKEHQHAPHQYTAHPISINYRTEIDKPSQ
# B10: E23 (designed binder)
# 10Fn3 domain: MGVSDVPRDLEVVAATPTSLLISWQVPRPMYQYYRITYGETGGNSPVQEFTVPYDVITATISGLKPGVDYTITVYAVTDMMHVEYAEYPISINYRTEIDKPSQ
# B11: E26 (designed binder)
# 10Fn3 domain: B10 10Fn3 domain with Q25W, V26I, P27G, R28I, M30V, V56G, I57K
# B12: E30 (designed binder)
# 10Fn3 domain: MGVSDVPRDLEVVAATPTSLLISWAIGTIVYQYYRITYGETGGNSPVQEFTVPAGVYTATISGLKPGVDYTITVYAVTDYYDWATHEYNYHTAPISINYRTEIDKPSQ
# B13: E25 (designed binder)
# 10Fn3 domain: MGVSDVPRDLEVVAATPTSLLISWGYQSGGYTYYRITYGETGGNSPVQEFTVPHDLRTATISGLKPGVDYTITVYAVTDYAYKEYQEHPISINYRTEIDKPSQ
# B14: E28 (designed binder)
# 10Fn3 domain: MGVSDVPRDLEVVAATPTSLLISWNPGSKSYQYYRITYGETGGNSPVQEFTVPGGVRTATISGLKPGVDYTITVYAVTDFYNPDTHEYLYNQYPISINYRTEIDKPSQ
# B15: E18 (designed binder)
# 10Fn3 domain: B3 10Fn3 domain with Q25F, P27T, R28H, P29V, M30A, M55G, V56L, H57S, H80Y
# B16: E22 (designed binder)
# 10Fn3 domain: B4 10Fn3 domain with Q25S, V26T, P27G, P29T, M30T, G54H, Q55D, V56L, Y57D
# B17: E24 (designed binder)
# 10Fn3 domain: B4 10Fn3 domain with Y57P
# B18: E19 (designed binder)
# 10Fn3 domain: B3 10Fn3 domain with Q25E, V26T, P27E, R28S, P29N, M30A, M55Q, V56I, H57Y, H80Y
# B19: E27 (designed binder)
# 10Fn3 domain: MGVSDVPRDLEVVAATPTSLLISWSKGSKSYQYYRITYGETGGNSPVQEFTVPYHVYTATISGLKPGVDYTITVYAVTDYYNPATYEYIYLTTPISINYRTEIDKPSQ
# B20: E29 (designed binder)
# 10Fn3 domain: B19 10Fn3 domain with S25Q, K26P, S28T, K29T, S30H, H55D, V56L, Y57M, A84N
# B21: E31 (designed binder)
# 10Fn3 domain: B19 10Fn3 domain with S25T, K26Y, G27N, S28D, K29G, H55A, Y80F, L91H
# B22: E51 (designed binder)
# 10Fn3 domain: B4 10Fn3 domain with Q25G, V26G, P27H, P29A, M30V, Q55A, S80Y, A84D, T93Y
# B23: E57 (designed binder)
# 10Fn3 domain: B4 10Fn3 domain with Q25I, P27Q, R28G, P29G, M30R, Q55M, Y57T, S80Y, A84S
# B24: E52 (designed binder)
# 10Fn3 domain: B10 10Fn3 domain with A14S, Y54G, D55G, I57R, M80Y, M81W, H82F, V83K, A86R, Y88D
# B25: E58 (designed binder)
# 10Fn3 domain: MGVSDVPRDLEVVAATPTSLLISWSAVRWRYQYYRITYGETGGNSPVQEFTVPGGVRTATISGLKPGVDYTITVYAVTDFYNPRTHVYIYDQFPISINYRTEIDKPSQ
# B26: E46 (designed binder)
# 10Fn3 domain: MGVSDVPRDLEVVAATPTSLLISWQVGSVVYQYYRITYGETGGNSPVQEFTVPRDVLTATISGLKPGVDYTITVYAVTDYKPKPDGPHIYQAVPISINYRTEIDKPSQ
# B27: E47 (designed binder)
# 10Fn3 domain: B14 10Fn3 domain with G27A, S30D, G55Q, R57P, D84A, L89K, N91D, Q92S, Y93T
# B28: E50 (designed binder)
# 10Fn3 domain: B3 10Fn3 domain with Q25T, P27G, R28L, P29S, M30V, H57S, G67S, H80Y, S93Y
# B29: E54 (designed binder)
# 10Fn3 domain: MGVSDVPRDLEVVAATPTSLLISWKASYTGYNYYRITYGETGGNSPVQEFTVPRDVMTATISGLKPGVDYTITVYAVTDFYNPDTHQYTYRRIPISINYRTEIDKPSQ
# B30: E53 (designed binder)
# 10Fn3 domain: B4 10Fn3 domain with Q25S, P27G, R28G, P29M, M30I, Q55M, Y57T, S80Y
# B31: E55 (designed binder)
# 10Fn3 domain: B4 10Fn3 domain with Q25S, P27G, R28Q, P29V, M30F, G54Y, Q55D, S80Y
# B32: E56 (designed binder)
# 10Fn3 domain: MGVSDVPRDLEVVAATPTSLLISWYSGDYHYQYYRITYGETGGNSPVQEFTVPHDLETATISGLKPGVDYTITVYAVTDYYNPATHYYKYEQTPISINYRTEIDKPSQ
# B33: E48 (designed binder)
# 10Fn3 domain: MGVSDVPRDLEVVAATPTSLLISWRSSATAYQYYRITYGETGGNSPVQEFTVPGRVYTATISGLKPGVDYTITVYAVTDFFNWATHEYIYHSTPISINYRTEIDKPSQ
# B34: E49 (designed binder)
# 10Fn3 domain: MGVSDVPRDLEVVAATPTSLLISWHSGPREYQYYRITYGETGGNSPVQEFTVPGQVYTATISGLKPGVDYTITVYAVTDFFNPITHYYYYELTPISINYRTEIDKPSQ
# Biological target: T1, EGFR on the surface of human tumour cells (A431, H292) (human, UniProt P00533 25-1210)
# Assay: cell-based or functional assay
row,Binder,"% inhibition of EGFR phosphorylation at 100 nM binder, cell-based assay [%]"
1,B1,83.7
2,B2,97.7
3,B3,75.5
4,B4,86.7
5,B5,76.5
6,B6,88.8
7,B7,80.4
8,B8,84.7

# Biological target: T1, EGFR on the surface of human tumour …
# Assay: cell-based or functional assay
# Remark: another data set of the same source
row,Binder,"% inhibition of EGFR phosphorylation at 100 nM binder, cell-based assay [%]"
1,B9,80.2
2,B10,81.1
3,B11,75.4
4,B12,87.3
5,B13,77.1
6,B14,85.3
7,B15,91.1
8,B16,83.7
9,B17,90.3
10,B18,84.6
11,B19,94.6
12,B20,87.9
13,B21,75.8

# Biological target: T1, EGFR on the surface of human tumour …
# Assay: cell-based or functional assay
# Remark: another data set of the same source
row,Binder,"% inhibition of EGFR phosphorylation at 100 nM binder, cell-based assay [%]"
1,B22,82.8
2,B23,75.5
3,B24,75.3
4,B25,79.7
5,B26,77
6,B27,76.9
7,B28,77.4
8,B29,76.1
9,B30,79.8
10,B31,99.1
11,B32,84.2
12,B33,88.6
13,B34,83.5

# — US20180037631A1 (Bristol-Myers Squibb, published 2018)
